Measurements: patent publication US20140348840A1 (Memorial Sloan Kettering, published 2014)
Values belong to the binder of their own block, whether it stands above or below them.

How the values were obtained:
p300 [1] = molecular target: T1, p300 (UniProt Q09472 2-2414, limits assumed); assay: anti-Flag co-IP from 293T cells, Western blot for p300
T1 construct: The shRNAs used in Kasumi-1 cells are against human p300
Procedure: (§1) After 36 hours the cells were lysed in RIPA buffer with 1 mM DTT and DNAse I 1 μg/mL and a proteinase inhibitor cocktail (Roche), and incubated on ice for 30 minutes. Nuclear extracts were prepared to examine the endogenous protein-protein interactions. Anti-Flag agarose (Sigma), anti-HA agarose (Pierce) or protein A/G agarose (Santa Cruz) was used in the immunoprecipitation assays. For western blot assays, protein samples were separated by electrophoresis on denaturing 3-8% or 4-12% premade polyacrylamide gels (Invitrogen) and blotted to PVDF membranes (Millipore).

p300 [2] = molecular target: T1, p300; assay: anti-HA co-IP, Western blot for p300
Procedure: as §1

p300 [3] = molecular target: T1, p300; assay: in vitro binding assay with purified proteins

T1 sequence (Q09472 2-2414 limits assumed): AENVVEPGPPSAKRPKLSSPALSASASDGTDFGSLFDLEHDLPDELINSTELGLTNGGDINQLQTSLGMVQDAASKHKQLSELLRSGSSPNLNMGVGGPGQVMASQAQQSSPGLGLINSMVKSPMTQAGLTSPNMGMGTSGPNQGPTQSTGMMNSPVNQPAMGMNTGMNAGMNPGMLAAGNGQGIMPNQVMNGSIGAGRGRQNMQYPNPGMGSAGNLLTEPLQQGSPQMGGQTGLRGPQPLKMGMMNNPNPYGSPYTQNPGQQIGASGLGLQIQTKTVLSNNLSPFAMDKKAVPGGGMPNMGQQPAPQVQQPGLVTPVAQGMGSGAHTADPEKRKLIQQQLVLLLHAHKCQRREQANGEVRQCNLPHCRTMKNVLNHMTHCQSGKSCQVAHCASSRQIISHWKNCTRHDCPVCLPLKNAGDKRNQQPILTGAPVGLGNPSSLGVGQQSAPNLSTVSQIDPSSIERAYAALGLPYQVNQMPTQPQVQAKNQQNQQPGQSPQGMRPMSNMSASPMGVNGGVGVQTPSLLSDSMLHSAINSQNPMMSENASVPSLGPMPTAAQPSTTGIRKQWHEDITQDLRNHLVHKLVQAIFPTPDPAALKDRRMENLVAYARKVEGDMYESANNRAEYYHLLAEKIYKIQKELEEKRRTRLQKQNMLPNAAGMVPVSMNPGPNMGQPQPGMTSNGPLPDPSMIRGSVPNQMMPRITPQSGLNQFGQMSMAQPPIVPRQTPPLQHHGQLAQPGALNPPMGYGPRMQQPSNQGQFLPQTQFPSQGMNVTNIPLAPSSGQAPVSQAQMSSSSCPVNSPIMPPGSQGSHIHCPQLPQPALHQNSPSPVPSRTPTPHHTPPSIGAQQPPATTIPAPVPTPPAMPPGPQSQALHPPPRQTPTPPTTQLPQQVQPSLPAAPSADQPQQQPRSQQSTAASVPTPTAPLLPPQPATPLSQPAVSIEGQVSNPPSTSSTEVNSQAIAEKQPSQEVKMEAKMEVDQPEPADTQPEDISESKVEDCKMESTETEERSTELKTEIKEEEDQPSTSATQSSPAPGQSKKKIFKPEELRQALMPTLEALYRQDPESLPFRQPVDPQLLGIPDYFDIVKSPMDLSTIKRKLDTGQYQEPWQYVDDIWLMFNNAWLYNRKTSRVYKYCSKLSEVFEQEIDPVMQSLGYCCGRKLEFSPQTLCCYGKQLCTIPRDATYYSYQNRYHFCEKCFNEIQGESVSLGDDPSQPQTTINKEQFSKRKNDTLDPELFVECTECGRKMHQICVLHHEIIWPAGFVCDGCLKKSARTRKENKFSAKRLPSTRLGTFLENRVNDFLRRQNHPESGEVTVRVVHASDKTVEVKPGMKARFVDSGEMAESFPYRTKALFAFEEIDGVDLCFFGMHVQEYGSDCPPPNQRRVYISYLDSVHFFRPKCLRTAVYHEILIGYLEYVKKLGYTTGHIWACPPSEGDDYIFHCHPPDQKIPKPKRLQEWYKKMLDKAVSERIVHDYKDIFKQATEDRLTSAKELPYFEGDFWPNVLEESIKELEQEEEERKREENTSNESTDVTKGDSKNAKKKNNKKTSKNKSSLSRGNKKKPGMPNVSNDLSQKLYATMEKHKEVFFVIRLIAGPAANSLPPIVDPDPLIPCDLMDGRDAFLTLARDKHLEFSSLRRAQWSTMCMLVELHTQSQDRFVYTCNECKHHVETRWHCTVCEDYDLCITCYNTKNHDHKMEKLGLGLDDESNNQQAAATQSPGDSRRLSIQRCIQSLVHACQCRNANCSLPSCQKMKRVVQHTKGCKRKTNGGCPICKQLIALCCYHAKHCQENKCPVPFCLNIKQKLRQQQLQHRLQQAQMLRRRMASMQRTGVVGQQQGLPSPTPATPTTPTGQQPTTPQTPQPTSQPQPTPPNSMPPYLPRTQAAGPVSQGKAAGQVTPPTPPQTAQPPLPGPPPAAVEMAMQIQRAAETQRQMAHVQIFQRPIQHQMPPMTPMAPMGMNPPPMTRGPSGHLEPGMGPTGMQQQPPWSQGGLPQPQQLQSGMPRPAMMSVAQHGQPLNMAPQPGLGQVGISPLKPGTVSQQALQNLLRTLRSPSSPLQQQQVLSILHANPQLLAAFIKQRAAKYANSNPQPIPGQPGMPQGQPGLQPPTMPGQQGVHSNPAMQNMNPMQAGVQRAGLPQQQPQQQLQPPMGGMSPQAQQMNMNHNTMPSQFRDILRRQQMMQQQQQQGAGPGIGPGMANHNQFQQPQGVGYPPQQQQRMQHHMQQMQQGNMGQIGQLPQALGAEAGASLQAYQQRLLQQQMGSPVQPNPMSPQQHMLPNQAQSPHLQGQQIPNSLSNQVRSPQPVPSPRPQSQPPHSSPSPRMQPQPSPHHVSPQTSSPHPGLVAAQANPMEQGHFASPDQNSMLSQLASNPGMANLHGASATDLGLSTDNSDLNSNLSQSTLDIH

- binding result (p300 [1]): binds
B1: Flag-AE-ΔNHR2 (other)
chain: MRIPVDASTSRRFTPPSTALSPGKMSEALPLGAPDAGAALAGKLRSGDRSMVEVLADHPGELVRTDSPNFLCSVLPTHWRCNKTLPIAFKVVALGDVPDGTLVTVMAGNDENYSAELRNATAAMKNQVARFNDLRFVGRSGRGKSFTLTITVFTNPPQVATYHRAIKITVDGPREPRNRTEKHSTMPDSPVDVKTQSRLTPPTMPPPPTTQGAPRTSSFTPTTLTNGTSHSPTALNGAPSPPNGFSNGPSSSSSSSLANQQLPPACGARQLSKLKRFLTTLQQFGNDISPEIGERVRTLVLGLVNSTLTIEEFHSKLQEATNFPLRPFVIPFLKANLPLLQRELLHCARLAKQNPAQYLAQHEQLLLDASTTSPVDSSELLLDVNENGKRRTPDRTKENGFDREPLHSEHPSKRPCTISPGQRYSPNNGLSYQPNGLPHPTPPPPQHYRLDDMAIAHHYRDSYRHPSHRDLRDRNRPMGLEDLKKGGGSSSSHSRQQSPVNPDPVALDAHREFLHRPASGYVPEEIWKKAEEAVNEVKRQAMTELQKAVSEAERKAHDMITTERAKMERTVAEAKRQAAEDALAVINQQEDSSESCWNCGRKASETCSGCNTARYCGSFCQHKDWEKHHHICGQTLQAQQQGDTPAVSSSVTPNSGAGSPMDTPPAATPRSTTPGTPSTIETTPR
notes: AML1-ETO lacking amino acids 481 to 547 (the NHR2 domain); also called AML1-ETO ΔNHR2; not shown: Flag tag at the N-terminus

- binding result (p300 [2]): binds
B2: HA-AML1-ETO9a (other)
chain: MRIPVDASTSRRFTPPSTALSPGKMSEALPLGAPDAGAALAGKLRSGDRSMVEVLADHPGELVRTDSPNFLCSVLPTHWRCNKTLPIAFKVVALGDVPDGTLVTVMAGNDENYSAELRNATAAMKNQVARFNDLRFVGRSGRGKSFTLTITVFTNPPQVATYHRAIKITVDGPREPRNRTEKHSTMPDSPVDVKTQSRLTPPTMPPPPTTQGAPRTSSFTPTTLTNGTSHSPTALNGAPSPPNGFSNGPSSSSSSSLANQQLPPACGARQLSKLKRFLTTLQQFGNDISPEIGERVRTLVLGLVNSTLTIEEFHSKLQEATNFPLRPFVIPFLKANLPLLQRELLHCARLAKQNPAQYLAQHEQLLLDASTTSPVDSSELLLDVNENGKRRTPDRTKENGFDREPLHSEHPSKRPCTISPGQRYSPNNGLSYQPNGLPHPTPPPPQHYRLDDMAIAHHYRDSYRHPSHRDLRDRNRPMGLHGTRQEEMIDHRLTDREWAEEWKHLDHLLNCIMDMVEKTRRSLTVLRRCQEADREELNYWIRRYSDAEDLKKGGGSSSSHSRQQSPVNPDPVALD
notes: Alternatively spliced form of A-E with 575 amino acids, lacking NHR3 and NHR4; also called A-E9a; AE9a; not shown: HA tag (anti-HA antibody used for the IP)

- binding result (p300 [1]): no binding
B3: Flag-ETO-ΔNHR1 (other, human, UniProt Q06455 1-604, looked up)
chain: MISVKRNTWRALSLVIGDCRKKGNFEYCQDRTEKHSTMPDSPVDVKTQSRLTPPTMPPPPTTQGAPRTSSFTPTTLTNGTSHSPTALNGAPSPPNGLPHPTPPPPQHYRLDDMAIAHHYRDSYRHPSHRDLRDRNRPMGLHGTRQEEMIDHRLTDREWAEEWKHLDHLLNCIMDMVEKTRRSLTVLRRCQEADREELNYWIRRYSDAEDLKKGGGSSSSHSRQQSPVNPDPVALDAHREFLHRPASGYVPEEIWKKAEEAVNEVKRQAMTELQKAVSEAERKAHDMITTERAKMERTVAEAKRQAAEDALAVINQQEDSSESCWNCGRKASETCSGCNTARYCGSFCQHKDWEKHHHICGQTLQAQQQGDTPAVSSSVTPNSGAGSPMDTPPAATPRSTTPGTPSTIETTPR
notes: not shown: Flag tag

- binding result (p300 [3]): binds
B4: AML1-ETO fusion protein (other)
chain: MRIPVDASTSRRFTPPSTALSPGKMSEALPLGAPDAGAALAGKLRSGDRSMVEVLADHPGELVRTDSPNFLCSVLPTHWRCNKTLPIAFKVVALGDVPDGTLVTVMAGNDENYSAELRNATAAMKNQVARFNDLRFVGRSGRGKSFTLTITVFTNPPQVATYHRAIKITVDGPREPRNRTEKHSTMPDSPVDVKTQSRLTPPTMPPPPTTQGAPRTSSFTPTTLTNGTSHSPTALNGAPSPPNGFSNGPSSSSSSSLANQQLPPACGARQLSKLKRFLTTLQQFGNDISPEIGERVRTLVLGLVNSTLTIEEFHSKLQEATNFPLRPFVIPFLKANLPLLQRELLHCARLAKQNPAQYLAQHEQLLLDASTTSPVDSSELLLDVNENGKRRTPDRTKENGFDREPLHSEHPSKRPCTISPGQRYSPNNGLSYQPNGLPHPTPPPPQHYRLDDMAIAHHYRDSYRHPSHRDLRDRNRPMGLHGTRQEEMIDHRLTDREWAEEWKHLDHLLNCIMDMVEKTRRSLTVLRRCQEADREELNYWIRRYSDAEDLKKGGGSSSSHSRQQSPVNPDPVALDAHREFLHRPASGYVPEEIWKKAEEAVNEVKRQAMTELQKAVSEAERKAHDMITTERAKMERTVAEAKRQAAEDALAVINQQEDSSESCWNCGRKASETCSGCNTARYCGSFCQHKDWEKHHHICGQTLQAQQQGDTPAVSSSVTPNSGAGSPMDTPPAATPRSTTPGTPSTIETTPR
notes: also called A-E; AE

- binding result (p300 [1]): binds
B5: Flag-AE (Flag-tagged AML1-ETO) (other)
chain: B4 chain
notes: Expressed in 293T cells with BosNeo-p300; anti-Flag IP; not shown: Flag tag added at the 5' end of the construct (N-terminus)

- binding result (p300 [1]): no binding
B6: Flag-AE-ΔNHR1 (aa245-436) (other)
chain: MRIPVDASTSRRFTPPSTALSPGKMSEALPLGAPDAGAALAGKLRSGDRSMVEVLADHPGELVRTDSPNFLCSVLPTHWRCNKTLPIAFKVVALGDVPDGTLVTVMAGNDENYSAELRNATAAMKNQVARFNDLRFVGRSGRGKSFTLTITVFTNPPQVATYHRAIKITVDGPREPRNRTEKHSTMPDSPVDVKTQSRLTPPTMPPPPTTQGAPRTSSFTPTTLTNGTSHSPTALNGAPSPPNGFSHRDLRDRNRPMGLHGTRQEEMIDHRLTDREWAEEWKHLDHLLNCIMDMVEKTRRSLTVLRRCQEADREELNYWIRRYSDAEDLKKGGGSSSSHSRQQSPVNPDPVALDAHREFLHRPASGYVPEEIWKKAEEAVNEVKRQAMTELQKAVSEAERKAHDMITTERAKMERTVAEAKRQAAEDALAVINQQEDSSESCWNCGRKASETCSGCNTARYCGSFCQHKDWEKHHHICGQTLQAQQQGDTPAVSSSVTPNSGAGSPMDTPPAATPRSTTPGTPSTIETTPR
notes: also called AML1-ETO ΔNHR1; not shown: Flag tag at the N-terminus
